Test results as given in patent US20210147523A1 (TEIJIN PHARMA, published 2021).

Assays:
mouse SPNS2 = target: T1, mouse SPNS2 (mouse, UniProt Q91VM4 1-549); experiment: cell-based or functional assay
T1 sequence: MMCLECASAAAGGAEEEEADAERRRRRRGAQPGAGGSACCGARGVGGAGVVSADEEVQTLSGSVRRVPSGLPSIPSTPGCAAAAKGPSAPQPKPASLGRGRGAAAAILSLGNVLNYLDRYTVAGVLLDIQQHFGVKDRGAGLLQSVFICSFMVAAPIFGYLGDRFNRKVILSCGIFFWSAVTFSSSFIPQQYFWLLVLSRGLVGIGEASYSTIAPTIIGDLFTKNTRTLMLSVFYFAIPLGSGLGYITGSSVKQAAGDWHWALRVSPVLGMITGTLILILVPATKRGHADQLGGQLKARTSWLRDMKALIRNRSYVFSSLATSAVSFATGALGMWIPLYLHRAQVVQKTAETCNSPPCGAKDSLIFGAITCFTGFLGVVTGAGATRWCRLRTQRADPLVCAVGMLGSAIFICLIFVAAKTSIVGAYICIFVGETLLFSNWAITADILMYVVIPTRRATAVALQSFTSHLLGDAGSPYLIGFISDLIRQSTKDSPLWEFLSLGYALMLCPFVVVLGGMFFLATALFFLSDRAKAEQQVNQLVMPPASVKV

[1] = target: T2, Mutant 1 of human SPNS2 (FLAG tag inserted in extracellular loop 1) (human, UniProt Q8IVW8 1-549); experiment: flow cytometry, FLAG-insertion mutant
T2 construct: on HEK293 cells; also called extracellular loop 1 mutant
T2 sequence: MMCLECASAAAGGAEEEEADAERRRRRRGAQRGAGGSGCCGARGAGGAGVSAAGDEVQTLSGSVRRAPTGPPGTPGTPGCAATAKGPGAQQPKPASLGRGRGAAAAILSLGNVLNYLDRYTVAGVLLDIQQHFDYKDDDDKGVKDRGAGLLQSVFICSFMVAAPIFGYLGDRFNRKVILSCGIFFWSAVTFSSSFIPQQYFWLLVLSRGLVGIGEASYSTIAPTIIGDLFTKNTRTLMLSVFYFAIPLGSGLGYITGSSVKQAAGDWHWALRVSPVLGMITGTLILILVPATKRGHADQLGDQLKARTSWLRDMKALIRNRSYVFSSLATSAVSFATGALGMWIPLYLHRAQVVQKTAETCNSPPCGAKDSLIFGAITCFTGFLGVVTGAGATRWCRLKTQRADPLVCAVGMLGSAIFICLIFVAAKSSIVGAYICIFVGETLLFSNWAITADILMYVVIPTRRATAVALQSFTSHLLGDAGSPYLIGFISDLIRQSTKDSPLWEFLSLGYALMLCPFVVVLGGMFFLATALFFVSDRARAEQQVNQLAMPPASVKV
Protocol: (§1) After the lipofection, the HEK 293 cells cultivated overnight were recovered from the culture dishes, and reacted with a cell staining buffer (BioLegend, 420201) containing an anti-FLAG antibody (Sigma-Aldrich, F1804) and an anti-SPNS2 antibody each in a volume of 20 μg/mL for 30 minutes at room temperature. After washing with a cell staining buffer one time, the anti-FLAG antibody was detected with an anti-mouse IgG-Alexa 647 conjugate antibody, and the anti-SPNS2 antibody was detected with an anti-rat IgG-FITC conjugate antibody with flow cytometer BD LSR Fortessa (Becton Dickinson). The binding ability to each mutant was evaluated with the ratio of the FITC-positive cell rate to the Alexa 647-positive cell rate. In Table 7, symbol (+) indicates a ratio of less than 0.1, symbol (±) indicates a ratio of 0.1 or more and less than 0.5, and symbol (−) indicate a ratio of 0.5 or more.

[2] = target: T3, Mutant 2 of human SPNS2 (FLAG tag inserted in extracellular loop 5) (human, UniProt Q8IVW8 1-549); experiment: flow cytometry, FLAG-insertion mutant
T3 construct: on HEK293 cells; also called extracellular loop 5 mutant
T3 sequence: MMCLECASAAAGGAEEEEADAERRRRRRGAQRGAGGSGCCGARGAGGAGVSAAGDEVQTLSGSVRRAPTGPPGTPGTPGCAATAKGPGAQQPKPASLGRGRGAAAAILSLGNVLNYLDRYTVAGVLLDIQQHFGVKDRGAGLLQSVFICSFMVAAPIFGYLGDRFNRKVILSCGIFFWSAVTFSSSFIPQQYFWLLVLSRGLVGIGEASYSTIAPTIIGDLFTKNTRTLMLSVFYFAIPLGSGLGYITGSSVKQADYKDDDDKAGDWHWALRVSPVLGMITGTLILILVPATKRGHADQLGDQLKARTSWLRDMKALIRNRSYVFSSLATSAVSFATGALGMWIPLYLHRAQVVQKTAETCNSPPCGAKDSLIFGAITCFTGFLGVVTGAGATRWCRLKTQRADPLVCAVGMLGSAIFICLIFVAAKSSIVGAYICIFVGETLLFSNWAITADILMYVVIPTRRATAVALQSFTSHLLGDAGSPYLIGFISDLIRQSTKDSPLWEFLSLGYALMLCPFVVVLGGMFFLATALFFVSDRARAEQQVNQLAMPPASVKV
Protocol: as §1

[3] = target: T4, Mutant 4 of human SPNS2 (FLAG tag inserted in extracellular loop 11) (human, UniProt Q8IVW8 1-549); experiment: flow cytometry, FLAG-insertion mutant
T4 construct: on HEK293 cells; also called extracellular loop 11 mutant
T4 sequence: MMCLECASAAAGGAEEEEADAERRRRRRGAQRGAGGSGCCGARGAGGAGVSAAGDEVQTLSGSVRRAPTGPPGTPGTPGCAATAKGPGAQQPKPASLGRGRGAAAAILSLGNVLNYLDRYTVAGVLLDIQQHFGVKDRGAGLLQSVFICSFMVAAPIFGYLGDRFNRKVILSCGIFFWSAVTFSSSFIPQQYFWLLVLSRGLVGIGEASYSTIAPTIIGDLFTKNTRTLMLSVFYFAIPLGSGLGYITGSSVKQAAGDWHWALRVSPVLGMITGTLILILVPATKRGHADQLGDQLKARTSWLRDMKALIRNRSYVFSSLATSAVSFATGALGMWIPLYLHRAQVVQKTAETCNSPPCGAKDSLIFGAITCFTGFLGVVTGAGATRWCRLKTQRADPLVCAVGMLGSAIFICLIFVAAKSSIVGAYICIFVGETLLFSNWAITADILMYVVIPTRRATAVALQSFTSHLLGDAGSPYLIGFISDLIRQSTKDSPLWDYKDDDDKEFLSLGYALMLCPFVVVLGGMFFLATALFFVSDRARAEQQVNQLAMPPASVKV
Protocol: as §1

| Binder | pIC50, S1P transport inhibition (S1PR3 Ca2+ FLIPR bioassay) (mouse SPNS2) | FITC+/Alexa 647+ cell rate ratio [1] [ratio] | FITC+/Alexa 647+ cell rate ratio [2] [ratio] | FITC+/Alexa 647+ cell rate ratio [3] [ratio] |
| --- | --- | --- | --- | --- |
| 37-0511F (antibody, IgG2b, V domains shown) VH: EVHLQQSGAALVRPRASVKLSCKVSGDSISRYYVHFVKQRPGQGLEWIGRIDPEDDTTKYSEKFKNRATLTADASSDTASLILSGLTSDDTATYFCSTLTGLDYWGQGVMVTVSS VL: DIQMTQSPPVLSTSVGDRVTLRCKPSQNVHSKLDWYQQKHGEAPKLLIYYTHNLQTGIPSRFSGSGSGTDYTLTISSLQPEDVATYYCFQYYSGWTFGGGTKLEMKR | 7.8 pIC50 (M) | < 0.1 | < 0.1 | ≥ 0.5 |
| 53-0707E (antibody, IgG2b, V domains shown) VH: EVQLQQSGAELVRPRTSVKLSCKVSGDSITRYYVHFVKQRPGQGLEWIGRIDPEDDTTKYSEKFKKKATLTADASSNTAYLIFSGLTSEDTATYFCSTLTGLDYWGQGVMVTVSS VL: DIQMTQSPPVLSTSVGDRVTLRCKASQNVHSKLDWYQQKHGEAPKLLIYYTHNLQTGIPSRFSGSGSGTDYTLTISSLQPEDVATYYCFQYYSGWTFGGGTKLEMKR | 7.6 pIC50 (M) | < 0.1 | < 0.1 | ≥ 0.5 |
| 96-1403F (antibody, IgG2b, V domains shown) VH: EVQLVETGGGLVRPGSSLKLSCATSGFTFSDTWMSWVRQAPGKGLEWVALIKDKNSNSEANYAESIKGRFTISRDDSKSRVYLQMNTLRDQDTATYYCTRHEDFYYYSGYYFDYWGQGVMVTVSS VL: DIVLTQSPPTLSVTPGESVSLSCRASQGISTSIHWYQQRSNESPRLLIKYASQSIAGIPSRFSGSGSGTDFILSINRVESEDFSVYYCQQTYSLPLTFGPGTKLEVKR | 7.3 pIC50 (M) | < 0.1 | – | ≥ 0.5 |
| 82-1109A (antibody, IgG2b, V domains shown) VH: QVQLQQSGVELAKPGSSVKISCKASGNTFTSNYITWIKQTPGQGLEYIGYINTGSGKTYYNEKFKGKATLTADKSSSTAFMQLSSLTPDDSAVYFCASLTGVDYFDDWGQGVMVTVSS VL: DDIVLTQSPALAPSLGQRATISCRASQSVRMSGYNLMHWYQQKPGQQPKLLIYDASKLASGIPARFSGSGSGTDFTLTIDPVQSDDIATYYCQQSKDDPYTFGAGTKLELRR | – | ≥ 0.5 | ≥ 0.5 | < 0.1 |
| 50-0704C (antibody, IgG2b, V domains shown) VH: EVQLVGSGGGLVQPGRSMKLSCEASGFTFSNHYMAWVRQAPTKGLEWVATISTGGGNTYYRDSVKGRFTISRDNARSTLSLQMDSLRSEDTATYYCARQDYSNYMGGFAYWGQGTLVTVSS VL: QFVLTQPNSVSTNLGSTVKLSCTRSIGNIGNNYVNWYKQYEGRSPTTMIYRDDERPDGVPDRFSGSIDRSSNSALLTINSVQTEDEADYFCQSFSSGIFIFGGGTKLTVL | 7.6 pIC50 (M) | < 0.1 | < 0.1 | ≥ 0.5 |
| 89-1207D (antibody, IgG2b, V domains shown) VH: EVQLVGSGGGLVQPGRSMKLSCEASGFTFSNHYMAWVRQAPTKGLEWVATISTGGGNTYYRDSVKGRFTISRDNARSILSLQMDSLRSEDTATYYCARQDYSNYMGGFAYWGQGTLVTVSS VL: QFVLTQPNSVSTNLGSTVKLSCTRSIGNIGNNYVNWYKQYEGRSPTTMIYRDDERPDGVPDRFSGSIDRSSNSALLTINNVQTEDEADYFCQSFSSGMFIFGGGTKLTVL | 7.6 pIC50 (M) | < 0.1 | < 0.1 | ≥ 0.5 |
| 18-0211B (antibody, IgG2b, V domains shown) VH: AVQLVGSGGGLVQPGRSMKLSCEASGFTFSNHYMAWVRQAPTRGLEWVATISTGGGNTYYRDSVKGRFTISRDNTRSTLSLQMDSLRSEDTATYYCTRQDYTNYMGGFAYWGQGTLVTVSS VL: QFVLTQPNSVSTNLGSTVKLSCTRSIGNIGNNYVNWYKQYEGRSPTTLIYRDDERPDGVPDRFSGSIDRSSNSALLTINSVQTEDGADYFCQSFSSGIFIFGGGTTLTVL | 7.9 pIC50 (M) | < 0.1 | < 0.1 | ≥ 0.5 |
| 65-0810G (antibody, IgG2b, V domains shown) VH: EVHLVESGGGLVQPGRSMKLSCTASGFTFNNYYMAWVRQAPTKGLEWVASISTGGGYTYYRDSVKGRFTISRDNTGNTLYLQMDSLRSEDTATYYCARCWELPYWGQGVMVTVSS VL: QFVLTQPNSVSTNLGSTVKLSCRRSSGNIGNNYVNWYRQHEGRSPTTMIYRDDTRPDGVPNRFSGSIDRSSNSALLTINNVRPEDEAYYFCQSYSGSIYIFGGGTKLTVL | 7.6 pIC50 (M) | < 0.1 | < 0.1 | ≥ 0.5 |
| 64-0807A (antibody, IgG2b, V domains shown) VH: EVQVVESGGGLVQPGRSMKLSCAALGFTFRDYYMAWVRQTPTKGLEWVAAISTGGGNTYYRDSVKGRFTISRDNAKSTLYLQMDSLRSDDTATYYCARNPYGNYFDYWGQGVMVTVSS VL: QFVLSQPNSVSTNLGSTVKLSCKRSTGNIGSNYVHWYQRHEGRSPTTLIYRDDKRPNGVPDRFSGSIDRSSNSALLTINNVQTEDEADYFCQSYSGGMYLFGGGTKLTVL | 7.6 pIC50 (M) | < 0.1 | < 0.1 | ≥ 0.5 |
| 84-1111F (antibody, IgG2b, V domains shown) VH: EVQVVESGGGLVQPGRSMKLSCAALGFTFRDYYMAWVRQTPTKGLEWVAAISTGGGNTYYRDSVKGRFTISRDNAKSTLYLKMDSLRSDDTATYYCARNPYGNYFDYWGQGVMVTVSS VL: QFVLSQPNSVSTNLGSTVKLSCKRSTGNIGSNYVHWYQRHEGRSPTTMIYRDDKRPNGVPDRFSGSIDRSSNSALLTINNVQTEDEADYFCQSYSGGMYLFGGGTTLTVL | 8.3 pIC50 (M) | < 0.1 | < 0.1 | ≥ 0.5 |
